Results on 36 sequences are retold here after the supplement of paper PMC10567573.

± gives the standard deviation.

The series in a line: protein stability index of a GFP-peptide fusion (GPS, HEK-293T) (PSI 1-6); higher = more stable. Particulars: c terminus: a fixed tail appended.
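Note: 24-mer peptide tiles fused after GFP, lentivirally expressed, FACS-sorted into six equal bins by GFP/DsRed ratio, decoded by Illumina sequencing, PSI is the read-weighted mean bin number.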

PPKIRLKPHRLGDSEHEPVYRAEL [PWWP2B] returned a protein stability index (treatment: DMSO) of 4.02 ± 0.19 and a protein stability index (treatment: MLN4924 1 uM, 8 h) of 4.09 ± 0.095.
For LLAWRCTKLSLLAIHGYTVWAHNL [FBXO33], in that order: 3.15 ± 0.21 and 3.13 ± 0.34.
For PATALGTASYPSDGCGADGLRSRV [NOL4L], in that order: 4.39 ± 0.27 and 4.55 ± 0.26.
For SFTLADVSLAVTLHRLKFLGFARR [GDAP1], in that order: 2.5 ± 0.64 and 2.33 ± 0.33.
For the sequence NNMNAVNLFFAWIKIFKYISFNKT [PKD2L1], the protein stability index runs as follows: (treatment: DMSO) 2.81 ± 0.46; (treatment: MLN4924 1 uM, 8 h) 2.58 ± 0.54.
For TNVRLQPAATWNLEEKRLTWRLPD [FCHO1], in that order: 3.27 ± 0.32 and 3.34 ± 0.24.
SMLLQRFSVAPHETQTQRGGEFQC [RNF180]: the protein stability index by setting is: (treatment: DMSO) 3.05 ± 0.097; (treatment: MLN4924 1 uM, 8 h) 3.31 ± 0.26.
As to PRAKSKVWKYFGFDTNAEGCILQW [ZBED1], the protein stability index runs as follows: (treatment: DMSO) 2.3 ± 0.59; (treatment: MLN4924 1 uM, 8 h) 2.38 ± 0.081.
In the case of YLIRVDGKGSIKELFPTGKQLEPL [VPS39], the protein stability index runs as follows: (treatment: DMSO) 2.49 ± 0.23; (treatment: MLN4924 1 uM, 8 h) 2.21 ± 0.23.
For IHPDEDISLEERRAQLPKYQRNLP [ZNF207], in that order: 4.19 ± 0.27 and 4.46 ± 0.31.
Regarding DMSIGGNLSKTQNMERFGEDNLED [CDC14A], the protein stability index (treatment: DMSO) came to 5.27 ± 0.14 and the protein stability index (treatment: MLN4924 1 uM, 8 h) stood at 5.34 ± 0.21.
For FGPDSKSSALACTLPTLPAKVYVG [NCF4], in that order: 2.74 ± 0.12 and 3.03 ± 0.43.
In the case of QYVTFLRSFSDKQKISLLHSCTCV [ALG2], the protein stability index (treatment: DMSO) was 3.1 ± 0.51 and the protein stability index (treatment: MLN4924 1 uM, 8 h) was determined as 2.69 ± 0.48.
Take LTIMPYNSAHHCVVEVENFLFVLG [KLHL14]: the protein stability index reads like this: (treatment: DMSO) 3.26 ± 0.64; (treatment: MLN4924 1 uM, 8 h) 3.02 ± 0.32.
Consider GHMLQHHGNSGHPLVLSYIDLSAW [HDAC6], for which the protein stability index by setting is: (treatment: DMSO) 2.24 ± 0.33; (treatment: MLN4924 1 uM, 8 h) 1.85 ± 0.19.
For the sequence MAAGGSGVGGKRSSKSDADSGFLG [NOP53], the protein stability index reads like this: (treatment: DMSO) 3.57 ± 0.22; (treatment: MLN4924 1 uM, 8 h) 3.96 ± 0.12.
For LNVGNERYVFEAVIRWIAHDTEIR [GAN], in that order: 2.53 ± 0.57 and 2.61 ± 0.56.
For EVDPTGHSFVLVTSLGLTYDGMLS [MAGEA10], in that order: 2.51 ± 0.47 and 2.52 ± 0.51.
Take PANSETSDLTLYLVVAVAAVSCVF [PCDHGA10]: the protein stability index (treatment: DMSO) came out at 2.69 ± 0.61 and the protein stability index (treatment: MLN4924 1 uM, 8 h) is 2.59 ± 0.54.
For MVPISKQPKEKIQAIIESCSRQFP [NOL4L], in that order: 3.34 ± 0.11 and 3.38 ± 0.47.
For YQCPDQMARNPAAIDMFIIGATFT [FBXO3], in that order: 3.02 ± 0.48 and 2.51 ± 0.77.
Consider EMREQYEAMAEKNRRDVEAWFFSK [KRT15], for which the protein stability index (treatment: DMSO) was 3.85 ± 0.13 and the protein stability index (treatment: MLN4924 1 uM, 8 h) amounted to 3.88 ± 0.39.
On to QSKGHGRAVDWWALGILIFEMLSG [PRKX], for which the protein stability index by setting is: (treatment: DMSO) 2.58 ± 0.58; (treatment: MLN4924 1 uM, 8 h) 2.56 ± 0.36.
For GPLFNFDVHDDVRLLSDATVEKDE [FAM50A], in that order: 5.23 ± 0.17 and 5.43 ± 0.11.
For HRMVVKIGDFGISKILSSKSKAYT [NEK8], in that order: 2.33 ± 0.084 and 2.14 ± 0.12.
For the sequence DDRNTACHHGLVADSLQASMEKDA [DLC1], the protein stability index reads like this: (treatment: DMSO) 5.15 ± 0.13; (treatment: MLN4924 1 uM, 8 h) 5.16 ± 0.16.
For PPSGSQPLTSTQGLEHAAAGGSSG [FBF1], in that order: 5.3 ± 0.2 and 5.44 ± 0.15.
For ERRPRRVEAERPHSLIGVIRETVL [FAM189A2], in that order: 3.64 ± 0.32 and 3.91 ± 0.41.
For MVHINRALKLIIRLFLVEDLVDSL [RTN3], in that order: 2.88 ± 0.31 and 2.92 ± 0.53.
With FVEKNPTIVNFPITNVDLREYLSE [USP39], the protein stability index worked out at 2.73 ± 0.66 (treatment: DMSO) and 3.01 ± 1 (treatment: MLN4924 1 uM, 8 h).
Consider SARYLEAALRLHRLLRDSEAFCHA [P3H4], for which the protein stability index (treatment: DMSO) was determined as 2.51 ± 0.23 and the protein stability index (treatment: MLN4924 1 uM, 8 h) stood at 2.07 ± 0.2.
On to GQCVQAFETHESDINSVRYYPSGD [GNB5], for which the protein stability index is 4.52 ± 0.12 (treatment: DMSO) and 4.46 ± 0.093 (treatment: MLN4924 1 uM, 8 h).
For INHLLKSPFSVHPKTGRISVPIDL [PRIM1], in that order: 2.06 ± 0.21 and 2.48 ± 0.17.
As for MSPYLVPDTQALCHHLPVIRQLAT [SMG5], the protein stability index by setting is: (treatment: DMSO) 2.3 ± 0.28; (treatment: MLN4924 1 uM, 8 h) 2.52 ± 0.22.
In the case of REDQLDTVLAVLEDSSRDIREALH [INTS4], the protein stability index runs as follows: (treatment: DMSO) 4.21 ± 0.36; (treatment: MLN4924 1 uM, 8 h) 4.38 ± 0.34.
For LQVTEDVNSSIKTFFCPNDTYNDM [CLCN6], in that order: 3.66 ± 0.22 and 3.65 ± 0.25.
